# Patent US20030017991A1 (PHARMACIA AND UPJOHN COMPANY A DELAWARE, published 2003)
# Non-standard residues stand in square brackets, D forms with d. No end group written: not given here. Nle = CCCC[C@H](N)C(=O)O
# Molecular target: human Asp2 aspartyl protease (Hu-Asp2), recombinant enzyme used in the in vitro cleavage assays (human, UniProt P56817 22-453, limits assumed)
# Assay: cell-based or functional assay
# Sequence of human Asp2 aspartyl protease (Hu-Asp2), recombinant enzyme used in the in vitro cleavage assays (P56817 22-453 Q214H limits assumed): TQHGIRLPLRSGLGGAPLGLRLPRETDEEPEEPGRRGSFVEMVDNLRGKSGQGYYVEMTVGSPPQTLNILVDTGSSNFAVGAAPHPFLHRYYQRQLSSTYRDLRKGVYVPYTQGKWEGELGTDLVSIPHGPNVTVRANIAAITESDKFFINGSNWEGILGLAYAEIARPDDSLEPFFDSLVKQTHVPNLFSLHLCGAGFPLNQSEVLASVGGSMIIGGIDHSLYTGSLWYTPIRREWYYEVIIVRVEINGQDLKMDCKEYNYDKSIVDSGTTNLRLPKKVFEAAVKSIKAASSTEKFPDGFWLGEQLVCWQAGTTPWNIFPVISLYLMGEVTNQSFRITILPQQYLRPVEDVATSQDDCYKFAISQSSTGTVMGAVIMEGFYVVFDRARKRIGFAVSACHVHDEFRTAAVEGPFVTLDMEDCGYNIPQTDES
Binder,activity against peptide #3 (SEQ ID NO:134),"activity against SEVSY-EVEFR (SEQ ID NO:141), peptide activity assay"
KTIN[Nle]DVDPS [KTINnle-DVDPS],~10 fold lower,
SEVNYEVEFR [SEVNY-EVEFR],,0.2 ratio
